For test [1], the target named is GvpA fused to NGFP or CGFP (Halobacterium salinarum) (UniProt P08958). The test can be described thus: split reporter (BiFC, NanoBiT); split-GFP (NGFP and CGFP of salt-stable mGFP2) in Hfx. volcanii transformants, 24 h 37 °C then 24 h 30 °C; relative fluorescence (rf) against the wild type; the highest of eight tag combinations is given.
The target is the same in test [2]. In words: split reporter (BiFC, NanoBiT); split-GFP of A/A with untagged GvpC, GvpN and GvpO co-produced under the P2 promoter (A/A + CNO).

Bounds are passed on as bounds.

Sequence of GvpA fused to NGFP or CGFP (Halobacterium salinarum) (P08958 whole entry, the tested form may be a part): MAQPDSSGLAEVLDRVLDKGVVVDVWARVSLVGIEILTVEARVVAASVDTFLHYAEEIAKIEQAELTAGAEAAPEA

Regarding “GvpC fused to NGFP or CGFP (from UniProt P24574 1-382) (natural protein)”, in test [1], the relative fluorescence (rf) was below 2 LAU/mm^2. For the substance “GvpA fused to NGFP or CGFP (from UniProt P08958 1-76) (natural protein)”, the relative fluorescence (rf) in test [2] was 5.12 LAU/mm^2; in test [1], below 2 LAU/mm^2.

The record behind these values is PMC9372576.
